Data from the supplement of paper PMC10567573.

B1: HDAC6 (parent)
chain: QEGLLDRCVSFQARFAEKEELMLV
B2: SCNN1D (parent)
chain: FLGHHSFSVRPGTEATISIREDEV

Variants of: B1
Test: protein stability index of a GFP-peptide fusion (GPS, HEK-293T) (PSI 1-6); higher = more stable
Conditions: c terminus: a fixed tail appended
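Note: lentivirally expressed fusions sorted by FACS into six bins by GFP to DsRed ratio, PSI derived from sequencing read proportions per bin multiplied by bin number.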

Protein stability index of substitutions, site by site:
F11: W 1.75 | Q 2.1 | S 2.53 | T 2.83 | K 2.33 | M 2.17 | L 1.71 | A 2.35 | I 2 | V 2.17 | Y 2.03 | H 2.37 | E 3.09 | R 2.66 | C 3.17 | D 3.01 | G 2.43 | P 2.73 | N 2.93
D6: Y 1.95 | H 2.09 | M 1.87 | Q 1.87 | E 1.84 | P 1.38 | K 2.69 | T 1.64 | S 2.13 | G 1.74 | W 2.38 | N 2.37 | R 2 | F 1.54 | A 2.45 | V 2.06 | I 1.69 | L 1.9 | C 1.78
R14: A 1.4 | D 2.54 | N 2.41 | S 1.9 | P 1.97 | I 2.35 | E 2.57 | T 2.14 | C 2.21 | H 2.27 | Y 2.24 | M 1.66 | Q 1.71 | K 2.06 | G 2.07 | F 1.56 | L 1.7 | V 1.38
L4: S 1.75 | N 2.06 | F 2.47 | H 1.44 | V 1.9 | E 1.85 | A 1.62 | I 1.79 | P 2.04 | T 1.91 | M 2.19 | Y 2.01 | W 1.5 | D 1.75 | R 1.79 | K 1.94 | Q 1.99 | C 2.73 | G 1.43
S10: D 2.19 | Q 2.1 | T 2.31 | E 2.17 | L 1.89 | W 1.86 | H 1.75 | C 1.77 | I 1.77 | A 2.5 | G 1.82 | Y 2.56 | P 1.99 | V 1.45 | F 1.83 | K 2.13 | N 1.66 | R 2.37 | M 1.64
F15: W 2.36 | Y 1.62 | Q 2.55 | I 1.56 | N 3.04 | A 2.33 | E 2.91 | G 2.54 | C 2.36 | S 2.9 | H 2.4 | P 3.02 | R 2.58 | V 2.49 | K 3.13 | L 2.23 | M 2.16 | T 2.81 | D 3.55
V9: P 2.36 | E 2.35 | N 2.58 | F 1.63 | D 2.29 | W 1.79 | Y 2.29 | G 1.9 | I 2.44 | Q 2.7 | L 1.74 | S 2.84 | T 2.07 | A 1.71 | H 1.94 | M 2.57 | R 2 | K 2.34 | C 2.18
A13: R 1.93 | F 2.2 | T 2.03 | N 1.89 | C 1.4 | S 1.57 | K 2.47 | Y 1.76 | Q 2.08 | H 2.59 | D 2.44 | E 1.31 | I 1.47 | W 2.2 | V 1.39 | P 2.05 | L 1.38 | G 1.85 | M 1.89
Q1: E 2.51 | I 2.48 | N 1.91 | F 1.18 | R 1.63 | S 2.34 | D 1.85 | P 2.13 | A 1.94 | M 1.94 | H 1.54 | C 1.39 | L 2.33 | V 1.54 | Y 1.25 | T 1.77 | G 1.51 | W 1.47 | K 1.39
L5: R 1.78 | Y 1.79 | A 1.87 | V 2.06 | Q 1.56 | S 1.9 | C 1.34 | I 2.07 | M 1.73 | E 3.01 | T 1.87 | D 2.62 | N 2.36 | G 1.71 | P 1.83 | K 1.72 | F 1.33 | W 1.58 | H 1.67
R7: P 2.56 | G 2.17 | L 2.69 | T 1.73 | C 2.32 | D 1.69 | M 1.92 | Y 1.66 | V 1.71 | Q 1.94 | F 2.59 | K 1.43 | H 1.7 | W 1.83 | N 2.13 | A 2.74 | I 2.91 | S 3.14 | E 1.93
G3: A 1.89 | E 2.54 | N 2.93 | I 1.95 | C 2.3 | V 1.4 | W 1.79 | R 2.01 | Y 1.31 | M 2.04 | H 2.12 | Q 2.01 | K 2.16 | S 2.19 | T 1.97 | L 1.64 | F 1.06 | P 1.78 | D 2.12
A16: M 1.87 | D 1.84 | H 1.41 | R 2.62 | Q 1.93 | L 1.07 | S 2.21 | F 1.75 | P 2.11 | I 2.31 | K 2.38 | C 1.48 | E 2.6 | N 1.97 | T 1.74 | G 1.62
C8: K 2.45 | M 1.98 | S 2.44 | Y 4.19 | F 1.61 | I 1.67 | D 1.77 | Q 2.12 | H 1.93 | A 1.97 | E 2.04 | P 1.87 | T 2.27 | V 2.17 | R 1.98 | N 1.9 | W 1.62 | L 1.57 | G 2.61
E2: V 2.44 | L 1.69 | S 2.5 | Y 1.8 | K 1.94 | I 2.12 | P 2.56 | Q 1.21 | M 1.62 | A 1.12 | R 1.95 | T 2.14 | G 2.52 | H 1.96 | N 1.28 | C 2 | F 1.77 | D 1.83 | W 1.57
Q12: N 2.65 | P 2.47 | C 2.1 | S 1.6 | L 1.52 | A 1.66 | T 1.99 | V 1.14 | G 2.77 | D 1.87 | K 2 | H 2.81 | I 2.57 | M 2.02 | E 1.83 | F 1.69 | W 1.08 | R 1.58

Variants of: B2
Test: as above
Conditions: c terminus: a fixed tail appended

Protein stability index: each site, then its substitutions
E23: K 2.38 | L 1.66 | R 1.73 | W 3.12 | S 1.06 | Q 1.65 | H 2.32 | M 1.91 | I 2.23 | G 2.29 | F 2.45 | N 2.1 | Y 2.54 | V 2.05 | T 1.41 | P 1.99
V24: A 1.8 | D 2.15 | Y 1.48 | W 1.44 | K 1.93 | F 1.76 | M 2.75 | T 1.66 | L 1.66 | Q 2.25 | I 1.8 | S 1.62 | C 1.81 | R 1.49 | H 1.76 | N 1.99 | G 1.9 | P 1.76 | E 2.27
